Results published in US20140161799A1 (ARCH ONCOLOGY, published 2014).
Where a chain is given by its changes, count along the chain named.

T1: rat CD47 (rat, UniProt P97829 19-303)
T1 construct: whole, on cells; also called CD47 on rat red blood cells
T1 sequence (looked up): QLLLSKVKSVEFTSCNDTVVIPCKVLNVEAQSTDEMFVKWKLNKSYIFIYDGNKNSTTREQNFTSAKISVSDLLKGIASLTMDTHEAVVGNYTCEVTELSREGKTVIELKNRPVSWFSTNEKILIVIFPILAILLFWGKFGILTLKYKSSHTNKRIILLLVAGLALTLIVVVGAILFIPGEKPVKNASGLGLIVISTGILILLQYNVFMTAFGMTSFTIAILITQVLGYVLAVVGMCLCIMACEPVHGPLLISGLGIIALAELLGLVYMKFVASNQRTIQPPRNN

T2: mouse CD47 (mouse, UniProt Q61735 19-303)
T2 construct: whole, on cells; also called CD47 on mouse red blood cells
T2 sequence (looked up): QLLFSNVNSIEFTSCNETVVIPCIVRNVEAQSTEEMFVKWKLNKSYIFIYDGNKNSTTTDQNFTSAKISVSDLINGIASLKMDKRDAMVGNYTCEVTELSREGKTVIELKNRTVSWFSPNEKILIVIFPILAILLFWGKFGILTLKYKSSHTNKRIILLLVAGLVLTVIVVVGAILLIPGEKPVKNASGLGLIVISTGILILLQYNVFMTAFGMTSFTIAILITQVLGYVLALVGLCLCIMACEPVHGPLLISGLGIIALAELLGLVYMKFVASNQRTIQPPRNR

T3: pig CD47 (pig, UniProt Q9GKE8 19-303)
T3 construct: whole, on cells; also called CD47 on pig red blood cells
T3 sequence (looked up): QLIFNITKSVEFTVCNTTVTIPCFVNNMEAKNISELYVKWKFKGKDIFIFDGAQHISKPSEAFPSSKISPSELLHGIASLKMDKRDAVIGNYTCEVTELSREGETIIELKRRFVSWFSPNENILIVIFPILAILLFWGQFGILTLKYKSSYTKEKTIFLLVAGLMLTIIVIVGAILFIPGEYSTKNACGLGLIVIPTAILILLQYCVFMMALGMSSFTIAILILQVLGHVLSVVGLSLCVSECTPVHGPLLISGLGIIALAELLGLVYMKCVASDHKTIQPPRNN

B1: pVxK7b-037-hum16-LC/pVxK7b-037-hum16-HC (antibody, human IgG1, V domains shown)
VH: QVQLQESGPGLVKPSQTLSLTCTVSGYTFTNYYVFWVRQARGQRLEWIGDINPVNGDTNFNEKFKNRVTISADKSISTAYLQWSSLKASDTAMYYCARGGYTMDYWGQG
VL: AIQLTQSPSSLSASVGDRVTITCRSSQSLVHSNGNTYLHWYQQKPGQAPRLLIYKVSYRFSGVPDRFSGSGSGTDFTLKISRVEAEDVGVYYCSQNTHVPRTFGQG
notes: Full-length human IgG1/kappa in CHO supernatant; Variable entries end within framework 4 (...FGQG / ...WGQG); also called Clone 16
B2: pVxK7b-037-hum17-LC/pVxK7b-037-hum17-HC (antibody, human IgG1, V domains shown)
VH: EVQLVQSGAEVKKPGATVKISCKVSGYTFTNYYVFWIRQPPGKGLEWIGDINPVNGDTNFNEKFKNRVTITADKSTSTAYMELSSLRSEDTAVYYCARGGYTMDYWGQG
VL: B1 VL
notes: Full-length human IgG1/kappa in CHO supernatant; Variable entries end within framework 4 (...FGQG / ...WGQG); also called Clone 17
B3: pVxK7b-037-hum12-LC/pVxK7b-037-hum12-HC (antibody, human IgG1, V domains shown)
VH: QVQLQESGPGLVKPGATVKISCKVSGYTFTNYYVFWVRQARGQRLEWIGDINPVNGDTNFNEKFKNRVTITADKSTSTAYMELSSLRSEDTAVYYCARGGYTMDYWGQG
VL: DIVMTQTPLSLPVTPGEPASISCRSSQSLVHSNGNTYLHWYQQKPGKAPKLLIYKVSYRFSGVPDRFSGSGSGTDFTLKISRVEAEDVGVYYCSQNTHVPRTFGQG
notes: Full-length human IgG1/kappa in CHO supernatant; Variable entries end within framework 4 (...FGQG / ...WGQG); also called Clone 12
B4: pVxK7b-037-hum20-LC/pVxK7b-037-hum20-HC (antibody, human IgG1, V domains shown)
VH: QITLKESGPTLVKPTQTLTLTCTFSGYTFTNYYVFWVRQAPGQGLEWMGDINPVNGDTNFNEKFKNRVTITADKSTSTAYMELSSLRSEDTAVYYCARGGYTMDYWGQG
VL: B3 VL with Q42L, K47Q, A48S, K50Q
notes: Full-length human IgG1/kappa in CHO supernatant; Variable entries end within framework 4 (...FGQG / ...WGQG); also called Clone 20
B5: pVxK7b-037-hum08-LC/pVxK7b-037-hum08-HC (antibody, human IgG1, V domains shown)
VH: QITLKESGPTLVKPTQTLTLTCTFSGYTFTNYYVFWIRQSPSRGLEWLGDINPVNGDTNFNEKFKNRFTISRDNAKNSLYLQMNSLRAEDTAVYYCARGGYTMDYWGQG
VL: B3 VL
notes: Full-length human IgG1/kappa in CHO supernatant; Variable entries end within framework 4 (...FGQG / ...WGQG); also called Clone 8
B6: pVxK7b-037-hum01-LC/pVxK7b-037-hum01-HC (antibody, human IgG1, V domains shown)
VH: B1 VH
VL: B3 VL
notes: Full-length human IgG1/kappa in CHO supernatant; Variable entries end within framework 4 (...FGQG / ...WGQG); also called Clone 1
B7: pVxK7b-037-hum23-LC/pVxK7b-037-hum23-HC (antibody, human IgG1, V domains shown)
VH: QVQLQESGPGLVKPSQTLSLTCTVSGYTFTNYYVFWVRQARGQRLEWIGDINPVNGDTNFNEKFKNRLTISKDTSKNQVVLTMTNMDPVDTATYYCARGGYTMDYWGQG
VL: B3 VL
notes: Full-length human IgG1/kappa in CHO supernatant; Variable entries end within framework 4 (...FGQG / ...WGQG); also called Clone 23
B8: pVxK7b-037-hum11-LC/pVxK7b-037-hum11-HC (antibody, human IgG1, V domains shown)
VH: B3 VH
VL: EIVLTQSPATLSVSPGERATLSCRSSQSLVHSNGNTYLHWYQQKPGQAPRLLIYKVSYRFSGVPSRFSGSGSGTDFTFTISSLEAEDAATYYCSQNTHVPRTFGQG
notes: Full-length human IgG1/kappa in CHO supernatant; Variable entries end within framework 4 (...FGQG / ...WGQG); also called Clone 11
B9: pVxK7b-037-hum14-LC/pVxK7b-037-hum14-HC (antibody, human IgG1, V domains shown)
VH: B1 VH
VL: B3 VL with I2V, T7S, P15L, E17Q
notes: Full-length human IgG1/kappa in CHO supernatant; Variable entries end within framework 4 (...FGQG / ...WGQG); also called Clone 14
B10: pVxK7b-037-hum09-LC/pVxK7b-037-hum09-HC (antibody, human IgG1, V domains shown)
VH: B7 VH
VL: B3 VL with I2V, T7S, P15L, E17Q
notes: Full-length human IgG1/kappa in CHO supernatant; Variable entries end within framework 4 (...FGQG / ...WGQG); also called Clone 9
B11: pVxK7b-037-hum10-LC/pVxK7b-037-hum10-HC (antibody, human IgG1, V domains shown)
VH: B7 VH
VL: B3 VL with Q42L, K47Q, A48S, K50Q
notes: Full-length human IgG1/kappa in CHO supernatant; Variable entries end within framework 4 (...FGQG / ...WGQG); also called Clone 10
B12: pVxK7b-037-hum18-LC/pVxK7b-037-hum18-HC (antibody, human IgG1, V domains shown)
VH: B2 VH with A16E, T17S, V18L, K19R, V24G, P40S, G42S, K43R, I48L
VL: B8 VL
notes: Full-length human IgG1/kappa in CHO supernatant; Variable entries end within framework 4 (...FGQG / ...WGQG); also called Clone 18
B13: pVxK7b-037-hum22-LC/pVxK7b-037-hum22-HC (antibody, human IgG1, V domains shown)
VH: B7 VH
VL: B8 VL
notes: Full-length human IgG1/kappa in CHO supernatant; Variable entries end within framework 4 (...FGQG / ...WGQG); also called Clone 22

What follows are binders tested against T4, human CD47 (human, UniProt Q08722 19-323) (assay: flow cytometry on RBCs, antibody 10 ng/ml).
T4 construct: whole, on cells; also called CD47 on human red blood cells
Protocol: (§1) Cross species reactivity of humanized antibodies of the present invention is determined using freshly isolated red blood cells (RBCs), which display CD47 on their surface, from human, mouse, rat, and pig according to the methods disclosed in Kamel et al. (2010) Blood. Transfus. 8(4):260-266.
(§2) RBCs are incubated for 60 minutes on ice with tissue culture supernatants containing the secreted humanized antibodies at a concentration of 10 ng/ml in a solution of phosphate buffered saline, pH 7.2, 2.5 mM EDTA (PBS+E). Cells are then washed with cold PBS+E, and incubated for an additional hour on ice with FITC labeled donkey anti-human antibody (Jackson Immuno Research Labs, West Grove, Pa.; Catalogue #709-096-149) in PBS+E. Cells are then washed with PBS+E, and antibody binding is analyzed using a BD FACSAria Cell Sorter (Becton Dickinson) or a C6 Accuri Flow Cytometer (Becton Dickinson). Antibody binding is quantitated by comparison of mean fluorescence values relative to that of chimeric antibody >VxP037-01LC (SEQ ID NO:7))/>VxP037-01HC (SEQ ID NO:57). The mean fluorescence value for each antibody is divided by the mean fluorescence value for the chimeric antibody.

T4 sequence (Q08722 19-323): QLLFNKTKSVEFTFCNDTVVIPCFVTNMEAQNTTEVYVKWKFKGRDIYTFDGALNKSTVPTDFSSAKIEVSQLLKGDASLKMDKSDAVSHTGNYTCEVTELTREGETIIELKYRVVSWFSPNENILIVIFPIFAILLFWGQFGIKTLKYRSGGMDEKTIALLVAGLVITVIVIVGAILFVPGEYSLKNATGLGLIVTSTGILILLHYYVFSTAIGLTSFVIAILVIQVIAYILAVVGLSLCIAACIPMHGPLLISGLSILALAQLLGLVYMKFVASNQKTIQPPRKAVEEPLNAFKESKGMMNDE

Row | mean fluorescence relative to chimeric antibody | Binder
1 | 0.9 fold of chimera | B1
2 | 0.8 fold of chimera | B2
3 | 0.8 fold of chimera | B3
4 | 1.3 fold of chimera | B4
5 | 0.7 fold of chimera | B5
6 | 1.1 fold of chimera | B6
7 | 1.2 fold of chimera | B7
8 | 0.8 fold of chimera | B8
9 | 1.1 fold of chimera | B9
10 | 1.2 fold of chimera | B10
11 | 1.1 fold of chimera | B11
12 | 1 fold of chimera | B12
13 | 1.1 fold of chimera | B13

Each binder was assayed against T1, rat CD47 (assay: flow cytometry on RBCs, antibody 10 ng/ml).
Protocol: as §1, §2

Row | mean fluorescence relative to chimeric antibody | Binder
14 | 2.1 fold of chimera | B1
15 | 2.1 fold of chimera | B2
16 | 1.3 fold of chimera | B3
17 | 1.9 fold of chimera | B4
18 | 1.2 fold of chimera | B5
19 | 2.7 fold of chimera | B6
20 | 3.3 fold of chimera | B7
21 | 1.2 fold of chimera | B8
22 | 3.2 fold of chimera | B9
23 | 3.7 fold of chimera | B10
24 | 2.9 fold of chimera | B11
25 | 2.2 fold of chimera | B12
26 | 2.8 fold of chimera | B13

What follows are binders tested against T2, mouse CD47 (assay: flow cytometry on RBCs, antibody 10 ng/ml).
Protocol: as §1, §2

Row | mean fluorescence relative to chimeric antibody | Binder
27 | 1 fold of chimera | B1
28 | 0.9 fold of chimera | B2
29 | 0.6 fold of chimera | B3
30 | 1.5 fold of chimera | B4
31 | 0.7 fold of chimera | B5
32 | 1.7 fold of chimera | B6
33 | 1.4 fold of chimera | B7
34 | 0.7 fold of chimera | B8
35 | 1.5 fold of chimera | B9
36 | 1.4 fold of chimera | B10
37 | 1.2 fold of chimera | B11
38 | 1.3 fold of chimera | B12
39 | 1.2 fold of chimera | B13

The binders below were run against T3, pig CD47 (assay: flow cytometry on RBCs, antibody 10 ng/ml).
Protocol: as §1, §2

Row | mean fluorescence relative to chimeric antibody | Binder
40 | 1.1 fold of chimera | B1
41 | 1.3 fold of chimera | B2
42 | 1.4 fold of chimera | B3
43 | 1.7 fold of chimera | B4
44 | 0.8 fold of chimera | B5
45 | 1.3 fold of chimera | B6
46 | 1.7 fold of chimera | B7
47 | 1.2 fold of chimera | B8
48 | 1.4 fold of chimera | B9
49 | 1.6 fold of chimera | B10
50 | 1.5 fold of chimera | B11
51 | 1.2 fold of chimera | B12
52 | 1.4 fold of chimera | B13
